Results on 2 substances are retold here after paper PMC12529874.

The target of experiment [1] is H2O2-oxidized SOD1(C6A) (Cys111 sulfonylated) (human). As to the kind of experiment: not stated; Zn2+-bound SOD1(WT, C6A) before and after oxidation with H2O2; Figure S7, method not given.
In experiment [2] the target is apo-SOD1(C6A) (human). The experiment is described as follows: SEC-MALS; gel filtration of 20 μM apo protein in MN buffer (100 mM MOPS, 50 mM NaCl, pH 7.0), before or after treatment with 10 mM H2O2, monitored at 280 nm, masses by MALS.
The target in experiment [3] is apo-SOD1(C6A) (human). The experiment is described as follows: not stated; Zn2+-bound SOD1(WT, C6A) before and after oxidation with H2O2; Figure S7, method not given.
In experiment [4] the target is apo-SOD1(C6A) (human). The experiment is described as follows: native MS; mass spectra of apo-SOD1(C6A) under native conditions, before and after treatment with H2O2; spectra normalized to the 11+ charge state of the dimer.

By stoichiometry N is commonly meant a count of units in the complex or per binding partner. In experiment [1], “H2O2-oxidized SOD1(C6A) (Cys111 sulfonylated) (enzyme)” had a stoichiometry N of 2.

In the case of apo-SOD1(C6A) (enzyme), the stoichiometry N with apo-SOD1(C6A) (human) [2], with apo-SOD1(C6A) (human) [3] and in the experiment with apo-SOD1(C6A) (human) [4] was 2 in each case.
